Earlier results as cited in paper PMC10953113 (Biomedicine & pharmacotherapy = Biomedecine & …, 2024).

Conditions: no reference given

## Arginine vasopressin [AVP]
  half-life (T1/2): ~ 10 min
